Measured values reported in patent US20170349638A1 (published 2017).
Blank lines part the entries; values can stand above or below the binder they belong to. Where no end group is shown, it is not given here.

Tests used:
SP-5 = test: Affinity selection MS
SP-44 = test: Affinity selection MS
GST-HDMX = target: T1, GST-HDMX (human (HDMX), UniProt O15151 1-134); test: Competition ELISA
T1 chain: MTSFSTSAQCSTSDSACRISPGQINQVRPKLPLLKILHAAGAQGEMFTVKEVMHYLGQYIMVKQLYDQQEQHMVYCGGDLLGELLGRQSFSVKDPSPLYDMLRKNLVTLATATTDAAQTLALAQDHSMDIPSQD

- Kd (SP-5): 90 nM
- Kd (SP-44): 180 nM
B1: GST-hDMX (other)
chain: T1 chain

- Kd (SP-5): 25 nM
- Kd (SP-44): 25 nM
B2: GST-hDM2 (other)
chain: MCNTNMSVPTDGAVTTSQIPASEQETLVRPKPLLLKLLKSVGAQKDTYTMKEVLFYLGQYIMTKRLYDEKQQHIVYCSNDLLGDLFGVPSFSVKEHRKIYTMIYRNLVVVNQQESSDSGTSVSENRCHLEGGSDQKDL

- IC50 (GST-HDMX): 175 nM
Binder: QSQQTFANLWRLLAQN (not fully specified (residues 7, 14, N-terminus, C-terminus, bridges)) [peptide 46 (Table 9), Ac-QSQQTF%r8NLWRLL%QN-NH2]
